The RNAGym collection of RNA variant scans (doi:10.7554/elife.80360)

B1: Hairpin Ribozyme (parent)
chain: GUCCUCUUUCACGUGCGCGUGAAAGAGAGAAGUGAACCAGAGAAACACACGUUGUGGUAUAUUACCUGGUA

Variants of: B1
Test: self-cleavage, relative activity (ratio to wild type); higher = more cleavage; co-transcriptional

Which self-cleavage does the source give for G1C G27A here?
Its self-cleavage is 0.16.

For G1C C6G, which self-cleavage is on record?
The self-cleavage was 0.249.

For G1C C6U, which self-cleavage is on record?
The self-cleavage was 0.249.

Which self-cleavage does the source give for G1A G25C here?
Its self-cleavage is 0.209.

With G1C A39G as the variant, how does the self-cleavage read?
Its self-cleavage is 0.146.

For G1C A39C, which self-cleavage is on record?
The self-cleavage was 0.225.

For G1C U63G, which self-cleavage is on record?
The self-cleavage was 0.0496.

Which self-cleavage does the source give for G1C C10U here?
Its self-cleavage is 0.241.

For G1C C10G, which self-cleavage is on record?
Its self-cleavage is 0.247.

Which self-cleavage does the source give for G1U A44C here?
The self-cleavage was 0.0421.

Which self-cleavage does the source give for G1C U55A here?
The self-cleavage was 0.0884.

Which self-cleavage does the source give for G1C U55C here?
Its self-cleavage is 0.18.

With G1C C37U as the variant, how does the self-cleavage read?
The self-cleavage was 0.177.

For G1C G69A, which self-cleavage is on record?
Its self-cleavage is 0.141.

For G1C G69U, which self-cleavage is on record?
Its self-cleavage is 0.144.

For G1A G56U, which self-cleavage is on record?
The self-cleavage was 0.0996.

With G1A G56C as the variant, how does the self-cleavage read?
Its self-cleavage is 0.282.

With G1C C65A as the variant, how does the self-cleavage read?
The self-cleavage was 0.141.

With G1U A39G as the variant, how does the self-cleavage read?
Its self-cleavage is 0.121.

For G1A G54C, which self-cleavage is on record?
The self-cleavage was 0.193.

For G1A A61C, which self-cleavage is on record?
Its self-cleavage is 0.175.

Which self-cleavage does the source give for G1A A61G here?
Its self-cleavage is 0.132.

Which self-cleavage does the source give for G1A C3G here?
Its self-cleavage is 0.342.

With G1C C3A as the variant, how does the self-cleavage read?
Its self-cleavage is 0.257.

With G1A G69U as the variant, how does the self-cleavage read?
Its self-cleavage is 0.235.

Which self-cleavage does the source give for G1C G25C here?
Its self-cleavage is 0.159.

Which self-cleavage does the source give for G1C G25A here?
The self-cleavage was 0.154.

With G1U A22C as the variant, how does the self-cleavage read?
The self-cleavage was 0.146.

For G1C G40C, which self-cleavage is on record?
The self-cleavage was 0.0947.

Which self-cleavage does the source give for G1C G68A here?
Its self-cleavage is 0.362.

For G1C U8A, which self-cleavage is on record?
The self-cleavage was 0.27.

With G1C as the variant, how does the self-cleavage read?
Its self-cleavage is 0.203.

With G1A as the variant, how does the self-cleavage read?
The self-cleavage was 0.185.

Which self-cleavage does the source give for G1U here?
Its self-cleavage is 0.13.

For G1C G13C, which self-cleavage is on record?
The self-cleavage was 0.179.

With G1C G13A as the variant, how does the self-cleavage read?
Its self-cleavage is 0.0408.

For G1C G13U, which self-cleavage is on record?
The self-cleavage was 0.225.

Which self-cleavage does the source give for G1C A35G here?
Its self-cleavage is 0.121.

Which self-cleavage does the source give for G1A G27C here?
The self-cleavage was 0.213.

For G1A C37U, which self-cleavage is on record?
The self-cleavage was 0.196.

For G1A A41G, which self-cleavage is on record?
Its self-cleavage is 0.0682.

With G1A A28C as the variant, how does the self-cleavage read?
The self-cleavage was 0.175.

For G1C C46A, which self-cleavage is on record?
Its self-cleavage is 0.208.

Which self-cleavage does the source give for G1C C46U here?
The self-cleavage was 0.0993.

Which self-cleavage does the source give for G1C C46G here?
The self-cleavage was 0.307.

For G1A U33G, which self-cleavage is on record?
Its self-cleavage is 0.119.

Which self-cleavage does the source give for G1A C38A here?
Its self-cleavage is 0.111.

For G1U A47U, which self-cleavage is on record?
The self-cleavage was 0.0955.

With G1A U20A as the variant, how does the self-cleavage read?
The self-cleavage was 0.213.

Which self-cleavage does the source give for G1U A35G here?
Its self-cleavage is 0.0705.

Which self-cleavage does the source give for G1U A35C here?
The self-cleavage was 0.0858.

Which self-cleavage does the source give for G1U A36G here?
Its self-cleavage is 0.184.

For G1C A45G, which self-cleavage is on record?
Its self-cleavage is 0.0824.

With G1C A45C as the variant, how does the self-cleavage read?
Its self-cleavage is 0.

With G1U A11U as the variant, how does the self-cleavage read?
Its self-cleavage is 0.201.

For G1U A11G, which self-cleavage is on record?
Its self-cleavage is 0.143.

With G1A U63C as the variant, how does the self-cleavage read?
Its self-cleavage is 0.166.

With G1C G34U as the variant, how does the self-cleavage read?
The self-cleavage was 0.344.

With G1A C48G as the variant, how does the self-cleavage read?
Its self-cleavage is 0.201.

For G1U A59G, which self-cleavage is on record?
The self-cleavage was 0.216.

With G1A C18U as the variant, how does the self-cleavage read?
Its self-cleavage is 0.256.

Which self-cleavage does the source give for G1C A41G here?
Its self-cleavage is 0.129.

Which self-cleavage does the source give for G1U A28U here?
Its self-cleavage is 0.198.

With G1C G42C as the variant, how does the self-cleavage read?
Its self-cleavage is 0.272.

Which self-cleavage does the source give for G1C A26C here?
Its self-cleavage is 0.14.

For G1C A26G, which self-cleavage is on record?
The self-cleavage was 0.239.

For G1A C4A, which self-cleavage is on record?
The self-cleavage was 0.248.

Which self-cleavage does the source give for G1A C4G here?
The self-cleavage was 0.149.

Which self-cleavage does the source give for G1A G42U here?
The self-cleavage was 0.0643.

With G1C A11U as the variant, how does the self-cleavage read?
Its self-cleavage is 0.179.

For G1A G34C, which self-cleavage is on record?
The self-cleavage was 0.09.

For G1A G34U, which self-cleavage is on record?
Its self-cleavage is 0.189.

Which self-cleavage does the source give for G1C G51U here?
The self-cleavage was 0.181.

For G1C G51C, which self-cleavage is on record?
Its self-cleavage is 0.0946.

With G1C G57C as the variant, how does the self-cleavage read?
Its self-cleavage is 0.118.

With G1C G57A as the variant, how does the self-cleavage read?
The self-cleavage was 0.134.

With G1C U62G as the variant, how does the self-cleavage read?
Its self-cleavage is 0.4.

With G1C U62A as the variant, how does the self-cleavage read?
The self-cleavage was 0.0347.

Which self-cleavage does the source give for G1C G15A here?
The self-cleavage was 0.184.

Which self-cleavage does the source give for G1A U5C here?
The self-cleavage was 0.269.

For G1C C38U, which self-cleavage is on record?
The self-cleavage was 0.198.

With G1A C16G as the variant, how does the self-cleavage read?
The self-cleavage was 0.169.

Which self-cleavage does the source give for G1C C50U here?
Its self-cleavage is 0.321.
